Test results reported in the DeepSol protein solubility set.

Assay: soluble on expression in E. coli; label from the status in PepcDB or PDB records

Sequence	soluble on expression in E. coli
MTSAHDIDLQQILTDRLTGASPDLLRELLTMFIHTLMGAEADALCGAGYGQRSEERTNSRNGYRHRDFDTRVGTLDVAIPKLRSGSYFPDWLLERRKRAEKALTTVVATCYLLGVSTRRMDRLVDTLGITGLSKSQVSVMAKDLDTQVEAFRSRPLDTGPYTFVAADALVLKVRENGRVVNVHTLVAVGVNAEGYREILGVDVTSSEDGAGWLAFFRSLVARGLGGVRLVTSDAHAGLVAAIGGTLPGASWQRCRTHYSTNLMAVTPKASWPWVKTLLHSVYDQPDADSVHAQYDRIIGALSEKLPRVADHLDAARPDLLAFTAFPKQIWKQIWSNNPQERLNKEIRRRTDVVGIFPDRTALIRLVGAVLAEQHDEWIEGRRYLGLDVLARSRNDKPTDSSTESTEEVTPALTA	not soluble
MGSDKIHHHHHHMAKNKTAYVCSECGQDFPRWQGQCNACGEWNTISEVRLAPAKSSAGSVAGYAGAVGGGSKKLSEVEEFEAKKLLTGIGELDRVLCGGLTTGSVNIISGDPGAGKTTILSDLVSRMSQLMPSLYCTAEESLSQFKNRVNRLRLDCNEENLYLMAETNVEAIIAELEAKQVKFAVIDSIQAVVTDLANGSPGSPSQVKGSAQALTQYCKQNNVTMFLVAHVNKNNETAGPQTLIHIVDCLTHLECNDGQVRTLRANKNRFGDVDTVGIFRMTERGMLSVDNPSEIFLSGSTTESPGAAITCIRKGNRNLLLEIQCLTTEAEGEFPQRVCVGLNMNRIKMLTGILRKHTRTKIYHDTYFNLVGGLKIDESETCIDLALVAALLSSLNEFVVPRTTCIMGELSLNGDVRPIDSGVPRVKEAVQHGFTEIFIPFRNYHKSMEGLGAKINPIKTIHELLELIC	not soluble
SLPMQHVHTSPVRDYRNRCARREGETVFQVVVEETDLRVTALAELATPMAAYVGELRAQLKVWMEFQPAFRHSLVPVEVPEGAPEVVRRMAHGARLVGVGPFAAVAGTIAQMVAERFVDVSPELIVENGGDLYLYSERDRVVGILPDPASGDMVGILVRAGTAPVSLCGSSARIGHSLSLGDGDLAVVRARDASLADAAATAFGNMLRRADDVAAVTERAAQLASIGIEGVYAQCGGRIGIWGDMELAVA	soluble
MTKISKIIDELNNQQADAAWITTPLNVYYFTGYRSEPHERLFALLIKKDGKQVLFCPKMEVEEVKASPFTGEIVGYLDTENPFSLYPQTINKLLIESEHLTVARQKQLISGFNVNSFGDVDLTIKQLRNIKSEDEISKIRKAAELADKCIEIGVSYLKEGVTECEVVNHIEQTIKQYGVNEMSFDTMVLFGDHAASPHGTPGDRRLKSNEYVLFDLGVIYEHYCSDMTRTIKFGEPSKEAQEIYNIVLEAETSAIQAIKPGIPLKDIDHIARNIISEKGYGEYFPHRLGHGLGLQEHEYQDVSSTNSNLLEAGMVITIEPGIYVPGVAGVRIEDDILVTNEGYEVLTHYEK	not soluble
MAHHHHHHMRPSSHRRPKSSAASDVGRRIRYSDAPPWDRSIRVNGDRALSAGRASRRGPEMMKAKLQGTPARPSHCNLVTTQAATLVATVPPVNEPQVELMSQLQDVVVRLSQSAVGEKQRLAHMQQRLDAYAALMREQDRMIDELRGMNIRLQKERDALILFRQQSLNHDLHLMNNLENDGGIDEEARRAYAKYEGQNNSYGTPCNGSLGAMTPRSRGFVRSLVAQLRDERRKRLEVEEQSSRMIGEQQLTIQRLEDRLRPQVVAPRSVLVARLESPHVSSHQRASNEEKDAVNTPLQCPCVDSVSAPMSSPNFSVVNQEKRLTEVNPMAPAVPPIPLPERNKEAVITEQVHQSPAVSMDQQITPPLEVPLKIHSTSYDDAAAILFDIRKRHGL	not soluble
MEKYEEVLVSIRQIIRAIDLHSKKLSKESGLTAPQLILMRAINELDNVTIKQLSNHTNMSQATATTILDRLERNQLVERRRSVEDKRKVHAVLTEKGEEALRQAPTPLQEHFINRFQKLEEWEQTLLLSSVQRISTMMNAEDIDVAPLLEIGSITKPE	not soluble
SAILALFFHMYSHNISSLSMKAQPERMHVLVLSSWRSGSSFVGQLFGQHPDVFYLMEPAWHVWMTFKQSTAWMLHMAVRDLIRAVFLCDMSVFDAYMEPGPRRQSSLFQWENSRALCSAPACDIIPQDEIIPRAHCRLLCSQQPFEVVEKACRSYSHVVLKEVRFFNLQSLYPLLKDPSLNLHIVHLVRDPRAVFRSRERTKGDLMIDSRIVMGQHEQKLKKEDQPYYVMQVICQSQLEIYKTIQSLPKALQERYLLVRYEDLARAPVAQTSRMYEFVGLEFLPHLQTWVHNITRGKGMGDHAFHTNARDALNVSQAWRWSLPYEKVSRLQKACGDAMNLLGYRHVRSEQEQRNLLLDLLSTWTVPEQIH	not soluble
MESSVDEEALHQLYLWVDNIPLSRPKRNLSRDFSDGVLVAELIKFYFPKMVEMHNYVPANSLQQKLSNWGHLNRKVLNKLNFSVPDDVMRKIAQCSPGVVELVLIPLRQRLEERQRRQKLGVGSLQELAPQDSSGYMDMGLPQKVRGEGAPALGEQLREGRPLASRPPGYNQALQGDPSFVLQIAEKEQELLASQETVQVLQMKVKRLEHLLQLKNVRIDDLSRRLQQAERKQR	soluble
MSVFAFSFCAVVIMPNLLAMSDEETRGRQAMVANFVKDNQKTIRNGKGDKWMSNFLKTQNLTFHRSLSSPSAMSDSSSQNLVVLADVGTAACASGWTRYDLTGMCYQQSKKTMNWYQGEDYCWNLRPGAHSASVHSQEEAKWLNSLYRDKKNGGQMDSWIGLRRDCDNVTYIWTDGSPTDCLWWQPDYPKSEFAEFSCVTIWETDWLYDNPAYIPGQYDDMKECSDDGSNTPTTTTTMQTTTPSTTSTPTTTSTTTTTSASTTTISTTKPPTTQIDIEKCTSNCPVGWIYFGGLCYSKIQGPGRFVDFNSECTRLGGKLGEVSGADGNEALRLALTSNNGNKILDEAWIQHIGSYNNVASGYVGTAGSCYTVLKNSQTN	not soluble
MGSDKIHHHHHHMKKIGLTTTVPIEVLLSAGYTPIDLNNIFVGSKDYSKYIDIAEKDGFPKSLCAWIKGIYGACISNDIKEIVGVHDGDCSNTKALTEVLSMKGIKVYPFSYPSSHNINDVKDELDAFMNLFHVTLNQVEKIRTRLNKLRELGIEIDKLTFEDNKATALENHIWQISFSDLNGDIDAFNSDLIKTIADIKKREASSSKLRLGYIGVPPMTPDIYEFVTNFDAKIVYNEVQREFAFPRSSKAKDIYEQYFDYTYPYDVYFRIDEISRQIEERHIDGIIHYTQAFCYRAVQDIVIKEKLRVPVINIEGDRLNHLDARTKLRLEAFLDMLLDSKEGIF	not soluble
MGANTKYKDSVFSLLFSDPDLLRELYCALEGVSLPADIPVTINTLRDALFMGMINDISFEIGGKLIILIEHQSTINPNMALRLLMYIARVYEKLIGDRNIYSSRLIHIPRPEFYVLYNGVTPYPDRTTLKLSDMFEKAGAFGLPEKGSAALELEVNVININEGKNEVIAKKCKTLAGYSAFVAKVRAFEKEIGDKTEAMKQAVRYCRDHDILKEFLEQNGTEVMNMLINEWNIEDAKKVWYEDGLSQGLEKGLEKGREEGREEESFSIAQNLVKLGLPIETIISATQLDPDKVKALYQQ	soluble
MSLSGYAQTTKSEKIDKKLDSIYLKRENYVVSARDKLTIFIFSTRYLNGKLFTNPGIDNYYFPIAPLNIGLGFSHKWLAVNIAILSPKLGKSNYDNSQSKYQNFNLQALAYTPKYGVDIFYSQNLGYFLGNYNGYIDVANAPDKTPYFDMKTNRFTINLLRVFNPVKYSMNATMIGGEMQKNSSSSFIINTSFSLSKFRMSDSIPAFILDQMNQEAIFKGGTFYSISVLPGYGFTWIFSKRFYLGIIPGFGPSFQYKSMTFEDEHENKVAISYRIIAKAGAGFHAKRWTAGISVLYDNERYHLGSKTNIFNNNGKVILKVGYKINVPNWGKGLSKKMSTMQNKFEHTLHNEGHHHHHH	not soluble
MEFVLASASPARRRLLQGIGINPIVHVSHFDESQIHHDDPAQLVEALAAAKAKTVAQHRQDALILGCDSVLHVRGEILGKPASPTEAIARWQTMRGHYGLLYTGHALVDQTQNQLLVRHGVTKVYFAAIDDDTIAAYVRSGEPLQCAGCFALEGKGGLFIEKIEGCHSNVIGLSLPLLREMLAHLGYTVQTLWP	not soluble
MSEPLLEVKNLKTYFPIKGGIFSRTVGHVKAVDGVSFTIKKGEVFGLVGESGSGKTTIGKTILRLVQKTEGEVKFKGHDVHSLSKEELRKHRPNMQLVFQDPFSSLNPRMRIGEALGEPMLAHGLATKENVREKVTEVLELCGLAPYHIDRYPHEFSGGQRQRIVIARAMVLNPEFIVADEPVAALDVSIQAQIINLFSELQEKKGLSYLFISHDLSVVEHLCTKIGIMYLGTIVETAPRDELFTNPLHPYTKALLSAVPIPDPTVKRERIILEGDIPSPANPPSGCCFHTRCPFATDICKQTGNSVMLVKSTLLLVIMYKREGLFQKLKESFFIY	not soluble
MWFGEFGGQYVPETLIEPLKELEKAYKRFKDDEEFNRQLNYYLKTWAGRPTPLYYAKRLTEKIGGAKIYLKREDLVHGGAHKTNNAIGQALLAKFMGKTRLIAETGAGQHGVATAMAGALLGMKVDIYMGAEDVERQKMNVFRMKLLGANVIPVNSGSRTLKDAINEALRDWVATFEYTHYLIGSVVGPHPYPTIVRDFQSVIGREAKAQILEAEGQLPDVIVACVGGGSNAMGIFYPFVNDKKVKLVGVEAGGKGLESGKHSASLNAGQVGVFHGMLSYFLQDEEGQIKPTHSIAPGLDYPGVGPEHAYLKKIQRAEYVTVTDEEALKAFHELSRTEGIIPALESAHAVAYAMKLAKEMSRDEIIIVNLSGRGDKDLDIVLKVSGNV	soluble
MGSDKIHHHHHHMDLASKYFNGVNWRYIDHSSGLEPMQSFAFDDTFCESVGKDISDNVVRTWIHQHTVILGIHDSRLPFLKDGIDYLTNEIGYNAIVRNSGGLGVVLDQGVLNISLMFKGQTETTIDEAFTVMYLLISKMFEDENVDIDTMEIEHSYCPGKFDLSIDGKKFAGISQRRVRGGIAVQIYLCVEGSGSERALMMQTFYEHALKGEVTKFKYPEIEPSCMASLETLLNKTITVQDVMFLLLYAIKDLGGVLNMTPITQEEWQRYDTYFDKMIERNKKMIDQMQ	not soluble
MGHHHHHHSHMKFRAKIVDGACLNHFTRISNMIAKLAKTCTLRISPDKLNFILCDKLANGGVSMWCELEQENFFNEFQMEGVSAENNEIYLELTSENLSRALKTAQNARALKIKLTNKHFPCLTVSVELLSMSSSSRIVTHDIPIKVIPRKLWKDLQEPVVPDPDVSIYLPVLKTMKSVVEKMKNISNHLVIEANLDGELNLKIETELVCVTTHFKDLGNPPLASESTHEDRNVEHMAEVHIDIRKLLQFLAGQQVNPTKALCNIVNNKMVHFDLLHEDVSLQYFIPALS	soluble
MARKALIEKAKRTPKFKVRAYTRCVRCGRARSVYRFFGLCRICLRELAHKGQLPGVRKASW	soluble
MAAGKRDYYEVLGVSRSATAQDIKRAFRKLAMQYHPDRHKGEGETVQKQNEEKFKEVNEAYEVLSDTEKRGMYDRFGHEGLNASGFHETGFNPFDIFNSVFGEGFSFDMDGGSPFDFIFSRGKKSRQNRVVLPYDLEIAVGVDISFFEMTNGCTRTIEYTKRVTCSACDGFGAEGGETGMVSCNSCEGNGFILKNQRSIFGTVQSQMLCQSCGGQGKQAKHKCKTCKGSKYKKVPTTKEIQIPAGIYHGDALVDDHGGNEFGGHVGKLVVHVGVLPSKIFKRVDHNVVANVLVDPMIAITGGKIELPTLEGIKEFNLRAGTKSGEQIVIPGGGIKFTKNFRKKAGDLIIIISYARPSEYSAPELRKLKEFIKPNQEVKQYLEHHHHHH	soluble
